# Data from patent US20220143024A1, “METHODS OF USING IMIPRIDONES” (Board of Regents, The University of Texas System, priority 2019, published 2022).
# How the values were obtained:
# Assay in all cases: BioID-MS +ONC201
# [1] = biological target: NARS2 (human) (UniProt Q96I59)
# [2] = biological target: MDH2 (human) (UniProt P40926)
# [3] = biological target: LYRM7 (human) (UniProt Q5U5X0)
# [4] = biological target: PDPR (human) (UniProt Q8NCN5)
# [5] = biological target: MRPS23 (human) (UniProt Q9Y3D9)
# [6] = biological target: PYCR1 (human) (UniProt P32322)
# [7] = biological target: LYRM4 (human) (UniProt Q9HD34)
# LYRM4 (human), sequence (Q9HD34 whole entry): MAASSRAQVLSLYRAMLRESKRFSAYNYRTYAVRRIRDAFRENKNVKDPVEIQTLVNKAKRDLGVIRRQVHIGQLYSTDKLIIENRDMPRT
# [8] = biological target: MRPS15 (human) (UniProt P82914)
# [9] = biological target: GRPEL1 (human) (UniProt Q9HAV7)
# [10] = biological target: GATC (human) (UniProt O43716)
# [11] = biological target: GLUD1 (human) (UniProt P00367)
# [12] = biological target: PNPT1 (human) (UniProt Q8TCS8)
# PNPT1 (human), sequence (Q8TCS8 46-783 limits assumed): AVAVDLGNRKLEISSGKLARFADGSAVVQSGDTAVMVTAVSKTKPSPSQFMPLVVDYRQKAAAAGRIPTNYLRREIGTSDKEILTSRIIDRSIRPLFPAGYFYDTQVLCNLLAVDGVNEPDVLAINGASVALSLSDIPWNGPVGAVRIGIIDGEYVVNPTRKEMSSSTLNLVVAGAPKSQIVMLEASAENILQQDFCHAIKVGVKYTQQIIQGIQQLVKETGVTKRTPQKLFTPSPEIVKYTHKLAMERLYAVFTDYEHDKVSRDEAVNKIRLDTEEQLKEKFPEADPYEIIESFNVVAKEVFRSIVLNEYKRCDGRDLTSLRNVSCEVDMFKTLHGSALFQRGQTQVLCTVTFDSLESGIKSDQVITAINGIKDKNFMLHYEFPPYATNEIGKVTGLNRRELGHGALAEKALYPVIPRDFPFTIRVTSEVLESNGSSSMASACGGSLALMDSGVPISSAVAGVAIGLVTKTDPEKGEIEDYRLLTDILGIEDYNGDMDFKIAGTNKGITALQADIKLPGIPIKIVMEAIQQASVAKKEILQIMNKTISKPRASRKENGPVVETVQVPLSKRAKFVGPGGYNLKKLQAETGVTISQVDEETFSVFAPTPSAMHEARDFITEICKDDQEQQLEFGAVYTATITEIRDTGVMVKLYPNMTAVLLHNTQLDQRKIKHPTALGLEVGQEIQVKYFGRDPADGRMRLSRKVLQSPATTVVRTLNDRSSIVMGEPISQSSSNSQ
# [13] = biological target: BCKDHA (human) (UniProt P12694)
# [14] = biological target: FMC1 (human) (UniProt Q96HJ9)
# [15] = biological target: CRAT (human) (UniProt P43155)
# [16] = biological target: TST (human) (UniProt Q16762)
# [17] = biological target: METTL17 (human) (UniProt Q9H7H0)
# [18] = biological target: XPNPEP3 (human) (UniProt Q9NQH7)
# [19] = biological target: HADH (human) (UniProt Q16836)
# [20] = biological target: SLIRP (human) (UniProt Q9GZT3)
# [21] = biological target: GUF1 (human) (UniProt Q8N442)
# [22] = biological target: MTHFD2 (human) (UniProt P13995)
# MTHFD2 (human), sequence (P13995 36-350 limits assumed): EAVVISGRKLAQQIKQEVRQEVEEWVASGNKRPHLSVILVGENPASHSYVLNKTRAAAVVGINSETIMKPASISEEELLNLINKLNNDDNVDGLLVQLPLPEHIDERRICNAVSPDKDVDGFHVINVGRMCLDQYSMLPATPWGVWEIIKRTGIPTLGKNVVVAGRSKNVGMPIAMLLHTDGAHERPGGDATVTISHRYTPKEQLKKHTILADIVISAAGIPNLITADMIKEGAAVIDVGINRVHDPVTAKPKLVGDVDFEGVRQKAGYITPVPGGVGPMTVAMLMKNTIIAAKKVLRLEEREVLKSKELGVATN
# [23] = biological target: GTPBP3 (human) (UniProt Q969Y2)
# GTPBP3 (human), sequence (Q969Y2 21-492 limits assumed): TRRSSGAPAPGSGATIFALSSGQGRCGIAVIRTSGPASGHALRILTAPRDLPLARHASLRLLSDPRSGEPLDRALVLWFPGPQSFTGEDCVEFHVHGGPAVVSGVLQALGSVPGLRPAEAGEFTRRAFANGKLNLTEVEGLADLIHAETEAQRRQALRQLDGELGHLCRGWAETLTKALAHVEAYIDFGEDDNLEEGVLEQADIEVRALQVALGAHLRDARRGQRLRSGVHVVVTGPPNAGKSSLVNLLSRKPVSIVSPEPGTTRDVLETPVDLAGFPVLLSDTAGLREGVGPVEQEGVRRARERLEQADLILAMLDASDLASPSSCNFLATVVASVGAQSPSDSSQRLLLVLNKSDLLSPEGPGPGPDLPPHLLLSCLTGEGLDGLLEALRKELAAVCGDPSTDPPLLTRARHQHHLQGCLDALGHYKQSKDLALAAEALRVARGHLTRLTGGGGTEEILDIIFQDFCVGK
# [24] = biological target: POLG2 (human) (UniProt Q9UHN1)
# [25] = biological target: POLG (human) (UniProt P54098)
# [26] = biological target: NADK2 (human) (UniProt Q4G0N4)
# NADK2 (human), sequence (Q4G0N4 63-442 limits assumed): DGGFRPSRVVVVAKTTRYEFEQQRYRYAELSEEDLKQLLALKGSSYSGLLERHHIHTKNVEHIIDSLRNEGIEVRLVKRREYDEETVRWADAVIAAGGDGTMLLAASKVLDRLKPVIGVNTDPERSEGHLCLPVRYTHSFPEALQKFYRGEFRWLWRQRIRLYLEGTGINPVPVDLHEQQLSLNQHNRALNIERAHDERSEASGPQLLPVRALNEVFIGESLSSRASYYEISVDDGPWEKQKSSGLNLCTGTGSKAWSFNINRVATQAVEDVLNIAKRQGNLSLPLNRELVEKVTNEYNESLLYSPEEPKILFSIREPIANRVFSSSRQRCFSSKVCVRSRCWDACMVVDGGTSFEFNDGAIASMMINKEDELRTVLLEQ
# [27] = biological target: AARS2 (human) (UniProt Q5JTZ9)
# [28] = biological target: VARS2 (human) (UniProt Q5ST30)
# [29] = biological target: MTRF1L (human) (UniProt Q9UGC7)
# [30] = biological target: NDUFAF5 (human) (UniProt Q5TEU4)
# [31] = biological target: K1AA0564 (human) (UniProt A3KMH1)
# [32] = biological target: RPS15A (human) (UniProt P62244)
# [33] = biological target: DHRS4 (human) (UniProt Q9BTZ2)
# [34] = biological target: RNMTL1 (human) (UniProt Q9HC36)
# [35] = biological target: ALDH4A1 (human) (UniProt P30038)
# [36] = biological target: T1MM44 (human) (UniProt O43615)
# T1MM44 (human), sequence (O43615 whole entry, one chain of several): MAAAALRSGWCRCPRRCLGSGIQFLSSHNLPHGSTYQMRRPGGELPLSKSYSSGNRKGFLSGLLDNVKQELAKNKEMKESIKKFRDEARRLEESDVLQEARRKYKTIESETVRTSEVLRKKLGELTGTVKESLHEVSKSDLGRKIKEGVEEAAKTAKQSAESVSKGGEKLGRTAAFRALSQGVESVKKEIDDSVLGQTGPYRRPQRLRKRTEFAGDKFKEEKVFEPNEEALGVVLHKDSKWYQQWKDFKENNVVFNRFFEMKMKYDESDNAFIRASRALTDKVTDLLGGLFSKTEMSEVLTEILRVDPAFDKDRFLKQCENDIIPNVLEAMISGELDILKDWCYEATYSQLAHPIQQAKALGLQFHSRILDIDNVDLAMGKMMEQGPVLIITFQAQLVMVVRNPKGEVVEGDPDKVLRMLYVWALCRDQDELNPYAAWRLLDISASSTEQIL
# [37] = biological target: HSPA1L (human) (UniProt P34931)
# HSPA1L (human), sequence (P34931 whole entry): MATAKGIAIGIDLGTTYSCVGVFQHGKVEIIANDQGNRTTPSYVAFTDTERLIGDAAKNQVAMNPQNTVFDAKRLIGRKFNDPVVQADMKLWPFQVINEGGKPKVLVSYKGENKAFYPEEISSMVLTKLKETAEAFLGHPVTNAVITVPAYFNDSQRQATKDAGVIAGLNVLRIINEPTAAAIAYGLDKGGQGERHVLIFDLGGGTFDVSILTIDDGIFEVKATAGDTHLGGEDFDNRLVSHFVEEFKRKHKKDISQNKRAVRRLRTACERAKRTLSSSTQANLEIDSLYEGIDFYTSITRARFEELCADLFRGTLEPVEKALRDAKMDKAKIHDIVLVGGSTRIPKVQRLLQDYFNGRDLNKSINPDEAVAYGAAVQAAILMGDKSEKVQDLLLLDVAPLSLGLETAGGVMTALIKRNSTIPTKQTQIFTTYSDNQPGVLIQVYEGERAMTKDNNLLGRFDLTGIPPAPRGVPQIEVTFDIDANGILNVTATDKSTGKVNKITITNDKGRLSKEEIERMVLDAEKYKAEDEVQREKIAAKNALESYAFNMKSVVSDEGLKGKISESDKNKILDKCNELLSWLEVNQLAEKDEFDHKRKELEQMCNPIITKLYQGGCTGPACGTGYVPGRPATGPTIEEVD
# [38] = biological target: SUCLA2 (human) (UniProt Q9P2R7)
# [39] = biological target: ALDH1L2 (human) (UniProt Q3SY69)
# [40] = biological target: THEM4 (human) (UniProt Q5T1C6)
# [41] = biological target: TBRG4 (human) (UniProt Q969Z0)
# TBRG4 (human), sequence (Q969Z0 108-631 limits assumed): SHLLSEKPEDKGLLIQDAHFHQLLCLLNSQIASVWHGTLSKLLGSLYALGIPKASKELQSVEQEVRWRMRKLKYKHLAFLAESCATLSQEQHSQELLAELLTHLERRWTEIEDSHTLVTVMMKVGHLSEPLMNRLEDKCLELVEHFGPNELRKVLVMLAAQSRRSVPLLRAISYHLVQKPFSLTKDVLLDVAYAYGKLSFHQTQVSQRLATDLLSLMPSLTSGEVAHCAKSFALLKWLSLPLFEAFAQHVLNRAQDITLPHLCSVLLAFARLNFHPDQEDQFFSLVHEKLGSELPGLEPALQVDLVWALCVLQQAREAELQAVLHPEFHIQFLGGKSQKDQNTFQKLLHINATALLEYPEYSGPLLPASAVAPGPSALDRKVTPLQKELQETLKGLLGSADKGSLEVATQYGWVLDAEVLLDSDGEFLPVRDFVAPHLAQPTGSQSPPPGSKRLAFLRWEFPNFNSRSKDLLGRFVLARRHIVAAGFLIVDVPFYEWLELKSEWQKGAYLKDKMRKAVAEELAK
# [42] = biological target: SUCLG1 (human) (UniProt P53597)
# [43] = biological target: CDK5RAP1 (human) (UniProt Q96SZ6)
# [44] = biological target: C20orf72 (human) (UniProt Q9BQP7)
# C20orf72 (human), sequence (Q9BQP7 whole entry): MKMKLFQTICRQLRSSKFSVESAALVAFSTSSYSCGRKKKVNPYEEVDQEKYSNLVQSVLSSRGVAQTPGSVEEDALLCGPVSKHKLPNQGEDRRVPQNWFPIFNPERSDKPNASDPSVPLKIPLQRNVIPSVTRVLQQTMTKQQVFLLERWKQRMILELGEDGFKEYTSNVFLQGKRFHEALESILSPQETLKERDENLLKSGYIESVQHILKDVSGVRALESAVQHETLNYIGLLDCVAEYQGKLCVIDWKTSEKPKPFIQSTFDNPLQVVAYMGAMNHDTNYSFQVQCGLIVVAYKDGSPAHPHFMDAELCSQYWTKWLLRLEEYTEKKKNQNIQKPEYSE
# [45] = biological target: NDUFA2 (human) (UniProt O43678)
# [46] = biological target: MGME1 (human) (UniProt Q9BQP7)
# MGME1 (human), sequence (Q9BQP7 whole entry): as above
# [47] = biological target: HSD17B10 (human) (UniProt Q99714)
# [48] = biological target: MRPS7 (human) (UniProt Q9Y2R9)
# [49] = biological target: NUDT19 (human) (UniProt A8MXV4)
# [50] = biological target: POLRMT (human) (UniProt O00411)
# [51] = biological target: MRPL54 (human) (UniProt Q6P161)
# LYRM7 (human), sequence (Q5U5X0 whole entry): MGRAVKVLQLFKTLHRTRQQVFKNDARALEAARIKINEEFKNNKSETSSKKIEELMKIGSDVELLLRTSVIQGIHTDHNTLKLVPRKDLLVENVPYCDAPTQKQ
# PDPR (human), sequence (Q8NCN5 28-879 limits assumed): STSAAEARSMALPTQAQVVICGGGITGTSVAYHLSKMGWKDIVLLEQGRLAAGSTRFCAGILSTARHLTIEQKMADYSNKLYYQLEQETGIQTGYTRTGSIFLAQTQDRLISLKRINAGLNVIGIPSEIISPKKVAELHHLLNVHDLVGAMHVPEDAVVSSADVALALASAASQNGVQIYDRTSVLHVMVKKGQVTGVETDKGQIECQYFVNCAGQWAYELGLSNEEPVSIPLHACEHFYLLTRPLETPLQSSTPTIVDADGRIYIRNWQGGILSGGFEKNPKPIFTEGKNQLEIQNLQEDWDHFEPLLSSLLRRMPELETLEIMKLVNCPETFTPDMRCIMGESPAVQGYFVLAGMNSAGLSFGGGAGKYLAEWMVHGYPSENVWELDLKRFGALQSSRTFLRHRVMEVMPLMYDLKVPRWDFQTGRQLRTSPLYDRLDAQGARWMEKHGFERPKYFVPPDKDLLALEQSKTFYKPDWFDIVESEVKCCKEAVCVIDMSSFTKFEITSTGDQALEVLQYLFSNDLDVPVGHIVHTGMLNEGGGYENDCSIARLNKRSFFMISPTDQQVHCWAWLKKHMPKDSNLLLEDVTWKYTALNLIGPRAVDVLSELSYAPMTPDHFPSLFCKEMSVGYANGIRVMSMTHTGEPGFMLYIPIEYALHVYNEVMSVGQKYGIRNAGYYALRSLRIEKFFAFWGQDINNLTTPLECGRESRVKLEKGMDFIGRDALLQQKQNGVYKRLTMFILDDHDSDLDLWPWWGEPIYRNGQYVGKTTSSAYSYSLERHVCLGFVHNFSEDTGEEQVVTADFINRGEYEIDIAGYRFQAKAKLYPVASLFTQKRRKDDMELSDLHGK
substance,measurement,setting,value
FlagBirA-ClpP (WT) (from UniProt P06709 1-321; Q16740 57-277) (enzyme),Log2 Fold change (vs control),[1],-1.36 log2
same,Log2 Fold change (vs control),[2],-0.24 log2
same,Log2 Fold change (vs control),[3],-1.38 log2
same,Log2 Fold change (vs control),[4],-4.95 log2
same,Log2 Fold change (vs control),[5],-1.58 log2
same,Log2 Fold change (vs control),[6],-2.16 log2
same,Log2 Fold change (vs control),[7],0 log2
same,Log2 Fold change (vs control),[8],-4.91 log2
same,Log2 Fold change (vs control),[9],-5.52 log2
same,Log2 Fold change (vs control),[10],-5.98 log2
same,Log2 Fold change (vs control),[11],-1.63 log2
same,Log2 Fold change (vs control),[12],0.32 log2
same,Log2 Fold change (vs control),[13],-4.32 log2
same,Log2 Fold change (vs control),[14],-6.86 log2
same,Log2 Fold change (vs control),[15],-4 log2
same,Log2 Fold change (vs control),[16],-5.55 log2
same,Log2 Fold change (vs control),[17],-3.58 log2
same,Log2 Fold change (vs control),[18],-1.63 log2
same,Log2 Fold change (vs control),[19],-1.3 log2
same,Log2 Fold change (vs control),[20],-0.25 log2
same,Log2 Fold change (vs control),[21],-4.04 log2
same,Log2 Fold change (vs control),[22],-1.43 log2
same,Log2 Fold change (vs control),[23],-2.58 log2
same,Log2 Fold change (vs control),[24],-5.29 log2
same,Log2 Fold change (vs control),[25],-4.32 log2
same,Log2 Fold change (vs control),[26],-4.24 log2
same,Log2 Fold change (vs control),[27],-5.73 log2
same,Log2 Fold change (vs control),[28],-5.52 log2
same,Log2 Fold change (vs control),[29],-3.81 log2
same,Log2 Fold change (vs control),[30],-0.68 log2
same,Log2 Fold change (vs control),[31],-0.71 log2
same,Log2 Fold change (vs control),[32],-0.69 log2
same,Log2 Fold change (vs control),[33],-2.32 log2
same,Log2 Fold change (vs control),[34],0.05 log2
same,Log2 Fold change (vs control),[35],-2.21 log2
same,Log2 Fold change (vs control),[36],-0.52 log2
same,Log2 Fold change (vs control),[37],0.5 log2
same,Log2 Fold change (vs control),[38],-0.71 log2
same,Log2 Fold change (vs control),[39],-6.04 log2
same,Log2 Fold change (vs control),[40],-0.88 log2
same,Log2 Fold change (vs control),[41],0.28 log2
same,Log2 Fold change (vs control),[42],-1.44 log2
same,Log2 Fold change (vs control),[43],-4.17 log2
same,Log2 Fold change (vs control),[44],-3.52 log2
same,Log2 Fold change (vs control),[45],-6.32 log2
same,Log2 Fold change (vs control),[46],0.27 log2
same,Log2 Fold change (vs control),[47],0.01 log2
same,Log2 Fold change (vs control),[48],-2.77 log2
same,Log2 Fold change (vs control),[49],-3.1 log2
same,Log2 Fold change (vs control),[50],-2.95 log2
same,Log2 Fold change (vs control),[51],-4 log2
